The chains are these.
T1: human FcγRIIa(H) (human, UniProt P12318 36-217)
T1 construct: Analyte in solution on Biacore; also called FcγRIIa type H; FcgRIIaH
T1 sequence: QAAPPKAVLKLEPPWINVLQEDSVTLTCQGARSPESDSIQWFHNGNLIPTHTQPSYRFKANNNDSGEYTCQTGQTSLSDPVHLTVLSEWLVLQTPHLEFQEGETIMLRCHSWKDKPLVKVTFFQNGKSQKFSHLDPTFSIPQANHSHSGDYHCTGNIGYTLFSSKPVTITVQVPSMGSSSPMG

T2: human FcγRIIb (human, UniProt P31994 43-217, limits assumed)
T2 construct: Analyte in solution on Biacore; also called FcgRIIb; hFcgRIIb
T2 sequence: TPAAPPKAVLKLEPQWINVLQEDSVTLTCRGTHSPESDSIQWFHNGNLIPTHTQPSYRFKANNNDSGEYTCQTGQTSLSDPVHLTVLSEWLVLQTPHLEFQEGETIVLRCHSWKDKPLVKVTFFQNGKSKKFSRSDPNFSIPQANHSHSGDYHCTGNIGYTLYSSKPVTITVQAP

T3: human FcγRIIa(R) (human, UniProt P12318 36-217)
T3 construct: Analyte in solution on Biacore; also called FcγRIIa type R; FcgRIIaR
T3 chain: T1 sequence with H133R

T4: human FcγRIIb (human, UniProt P31994 43-217, limits assumed)
T4 construct: also called FcγIIB; hFcgRIIb
T4 sequence: T2 sequence

B1: GpH7-B3 variant P329S / GpL16-k0 (antibody, human IgG1)
heavy: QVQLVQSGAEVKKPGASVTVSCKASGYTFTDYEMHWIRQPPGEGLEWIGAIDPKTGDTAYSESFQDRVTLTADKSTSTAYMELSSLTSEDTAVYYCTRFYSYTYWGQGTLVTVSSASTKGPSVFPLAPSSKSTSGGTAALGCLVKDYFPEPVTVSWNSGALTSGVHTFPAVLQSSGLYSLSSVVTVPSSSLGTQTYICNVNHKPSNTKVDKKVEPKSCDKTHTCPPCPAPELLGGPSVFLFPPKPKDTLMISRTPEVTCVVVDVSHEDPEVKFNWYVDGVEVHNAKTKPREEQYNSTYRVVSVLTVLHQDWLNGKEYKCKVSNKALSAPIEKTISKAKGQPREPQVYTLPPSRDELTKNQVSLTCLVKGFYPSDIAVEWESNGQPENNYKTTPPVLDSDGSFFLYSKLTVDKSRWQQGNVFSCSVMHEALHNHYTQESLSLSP
light: DIVMTQSPLSLPVTPGEPASISCQASESLVHSNRNTYLHWYLQKPGQSPQLLIYKVSNRFSGVPDRFSGSGSGTDFTLKISRVEAEDVGVYYCSQNTHVPPTFGQGTKVEIE
notes: Anti-glypican-3 IgG1; constant region B3 = G1d with K439E
B2: GpH7-B3 variant A330S / GpL16-k0 (antibody, human IgG1)
heavy: not shown
light: B1 light
notes: as for B1
B3: GpH7-B3 variant P329G / GpL16-k0 (antibody, human IgG1)
heavy: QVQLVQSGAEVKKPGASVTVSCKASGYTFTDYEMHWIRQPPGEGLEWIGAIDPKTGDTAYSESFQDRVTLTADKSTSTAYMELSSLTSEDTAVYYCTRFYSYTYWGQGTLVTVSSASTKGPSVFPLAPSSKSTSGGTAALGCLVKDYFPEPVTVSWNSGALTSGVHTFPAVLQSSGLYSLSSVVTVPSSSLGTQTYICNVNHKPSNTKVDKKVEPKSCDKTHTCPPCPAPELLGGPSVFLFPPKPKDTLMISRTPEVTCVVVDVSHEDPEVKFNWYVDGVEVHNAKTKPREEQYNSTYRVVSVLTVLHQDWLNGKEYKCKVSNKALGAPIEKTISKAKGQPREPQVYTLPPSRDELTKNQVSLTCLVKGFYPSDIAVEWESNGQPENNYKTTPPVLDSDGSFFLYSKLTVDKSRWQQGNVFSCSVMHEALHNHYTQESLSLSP
light: B1 light
notes: as for B1
B4: GpH7-B3 variant I332P / GpL16-k0 (antibody, human IgG1)
heavy: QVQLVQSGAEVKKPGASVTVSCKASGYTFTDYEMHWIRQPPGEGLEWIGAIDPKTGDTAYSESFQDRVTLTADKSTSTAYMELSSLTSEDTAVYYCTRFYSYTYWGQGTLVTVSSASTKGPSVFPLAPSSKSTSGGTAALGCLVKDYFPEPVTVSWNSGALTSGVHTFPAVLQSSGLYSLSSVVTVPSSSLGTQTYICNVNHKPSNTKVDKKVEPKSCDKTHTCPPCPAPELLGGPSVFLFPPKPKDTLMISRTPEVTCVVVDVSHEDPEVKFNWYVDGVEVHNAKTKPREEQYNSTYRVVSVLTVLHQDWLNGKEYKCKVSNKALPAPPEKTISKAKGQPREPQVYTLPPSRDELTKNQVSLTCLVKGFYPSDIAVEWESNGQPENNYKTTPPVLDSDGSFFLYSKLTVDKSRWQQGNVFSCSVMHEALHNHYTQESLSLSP
light: B1 light
notes: as for B1
B5: GpH7-B3 variant I332R / GpL16-k0 (antibody, human IgG1)
heavy: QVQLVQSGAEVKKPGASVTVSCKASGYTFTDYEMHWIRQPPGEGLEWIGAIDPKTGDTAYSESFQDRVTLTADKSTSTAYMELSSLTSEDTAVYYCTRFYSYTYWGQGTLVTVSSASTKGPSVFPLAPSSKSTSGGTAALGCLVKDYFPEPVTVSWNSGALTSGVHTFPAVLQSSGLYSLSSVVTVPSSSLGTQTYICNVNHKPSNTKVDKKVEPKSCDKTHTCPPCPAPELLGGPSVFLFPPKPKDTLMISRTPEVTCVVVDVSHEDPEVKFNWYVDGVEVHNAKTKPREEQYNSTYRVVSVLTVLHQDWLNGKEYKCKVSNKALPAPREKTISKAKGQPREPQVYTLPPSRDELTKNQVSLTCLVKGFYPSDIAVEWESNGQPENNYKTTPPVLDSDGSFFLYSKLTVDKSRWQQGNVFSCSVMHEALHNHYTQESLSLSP
light: B1 light
notes: as for B1
B6: GpH7-B3 variant P331K / GpL16-k0 (antibody, human IgG1)
heavy: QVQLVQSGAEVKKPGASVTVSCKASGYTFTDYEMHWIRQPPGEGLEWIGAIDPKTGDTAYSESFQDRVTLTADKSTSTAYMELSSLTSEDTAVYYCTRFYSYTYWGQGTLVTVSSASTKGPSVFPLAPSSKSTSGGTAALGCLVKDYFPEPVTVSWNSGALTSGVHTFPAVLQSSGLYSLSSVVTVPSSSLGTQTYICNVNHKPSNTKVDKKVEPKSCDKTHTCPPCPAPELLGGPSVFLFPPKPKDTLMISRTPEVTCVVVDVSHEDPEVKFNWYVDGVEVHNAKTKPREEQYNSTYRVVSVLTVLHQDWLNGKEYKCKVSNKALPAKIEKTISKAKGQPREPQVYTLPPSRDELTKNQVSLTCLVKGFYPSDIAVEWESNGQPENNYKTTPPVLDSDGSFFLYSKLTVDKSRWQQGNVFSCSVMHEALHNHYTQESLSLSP
light: B1 light
notes: as for B1
B7: GpH7-B3 variant P331R / GpL16-k0 (antibody, human IgG1)
heavy: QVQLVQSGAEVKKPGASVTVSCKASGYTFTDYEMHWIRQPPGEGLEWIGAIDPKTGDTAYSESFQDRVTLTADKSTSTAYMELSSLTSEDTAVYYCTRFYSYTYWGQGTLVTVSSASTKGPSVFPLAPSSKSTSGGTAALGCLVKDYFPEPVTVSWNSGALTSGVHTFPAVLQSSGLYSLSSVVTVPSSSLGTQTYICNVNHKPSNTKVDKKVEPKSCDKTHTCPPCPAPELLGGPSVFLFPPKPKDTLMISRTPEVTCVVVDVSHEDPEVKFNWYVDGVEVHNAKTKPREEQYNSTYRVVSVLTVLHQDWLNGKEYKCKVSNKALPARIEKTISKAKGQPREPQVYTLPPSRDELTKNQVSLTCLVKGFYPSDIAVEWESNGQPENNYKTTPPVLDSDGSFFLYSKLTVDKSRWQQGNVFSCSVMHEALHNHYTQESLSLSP
light: B1 light
notes: as for B1
B8: GpH7-B3 variant P329D / GpL16-k0 (antibody, human IgG1)
heavy: not shown
light: B1 light
notes: as for B1
B9: GpH7-B3 variant P329E / GpL16-k0 (antibody, human IgG1)
heavy: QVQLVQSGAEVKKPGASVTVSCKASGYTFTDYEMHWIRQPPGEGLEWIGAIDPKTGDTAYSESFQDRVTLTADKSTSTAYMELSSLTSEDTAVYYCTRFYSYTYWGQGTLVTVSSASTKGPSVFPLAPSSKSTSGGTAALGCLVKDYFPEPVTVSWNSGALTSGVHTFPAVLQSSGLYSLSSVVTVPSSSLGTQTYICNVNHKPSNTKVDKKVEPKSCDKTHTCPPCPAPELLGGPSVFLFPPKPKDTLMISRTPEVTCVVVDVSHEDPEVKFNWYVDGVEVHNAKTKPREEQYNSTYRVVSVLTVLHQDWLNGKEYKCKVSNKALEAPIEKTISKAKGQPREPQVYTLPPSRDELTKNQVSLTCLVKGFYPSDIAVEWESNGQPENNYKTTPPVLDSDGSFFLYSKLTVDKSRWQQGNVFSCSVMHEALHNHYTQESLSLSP
light: B1 light
notes: as for B1
B10: GpH7-B3 variant P329Y / GpL16-k0 (antibody, human IgG1)
heavy: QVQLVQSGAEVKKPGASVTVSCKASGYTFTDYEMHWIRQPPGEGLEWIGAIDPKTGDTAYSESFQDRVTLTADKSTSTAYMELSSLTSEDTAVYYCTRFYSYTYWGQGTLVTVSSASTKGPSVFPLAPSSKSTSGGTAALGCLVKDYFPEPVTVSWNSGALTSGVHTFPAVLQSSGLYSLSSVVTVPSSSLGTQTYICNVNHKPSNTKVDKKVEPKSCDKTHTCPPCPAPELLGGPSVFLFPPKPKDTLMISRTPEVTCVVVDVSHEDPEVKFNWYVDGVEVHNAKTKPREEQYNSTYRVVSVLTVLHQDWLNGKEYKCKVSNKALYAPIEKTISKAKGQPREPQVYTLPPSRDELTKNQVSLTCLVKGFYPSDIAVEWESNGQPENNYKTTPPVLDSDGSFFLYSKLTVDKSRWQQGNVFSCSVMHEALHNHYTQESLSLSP
light: B1 light
notes: as for B1
B11: GpH7-B3 variant P329W / GpL16-k0 (antibody, human IgG1)
heavy: not shown
light: B1 light
notes: as for B1
B12: GpH7-B3 variant A330P / GpL16-k0 (antibody, human IgG1)
heavy: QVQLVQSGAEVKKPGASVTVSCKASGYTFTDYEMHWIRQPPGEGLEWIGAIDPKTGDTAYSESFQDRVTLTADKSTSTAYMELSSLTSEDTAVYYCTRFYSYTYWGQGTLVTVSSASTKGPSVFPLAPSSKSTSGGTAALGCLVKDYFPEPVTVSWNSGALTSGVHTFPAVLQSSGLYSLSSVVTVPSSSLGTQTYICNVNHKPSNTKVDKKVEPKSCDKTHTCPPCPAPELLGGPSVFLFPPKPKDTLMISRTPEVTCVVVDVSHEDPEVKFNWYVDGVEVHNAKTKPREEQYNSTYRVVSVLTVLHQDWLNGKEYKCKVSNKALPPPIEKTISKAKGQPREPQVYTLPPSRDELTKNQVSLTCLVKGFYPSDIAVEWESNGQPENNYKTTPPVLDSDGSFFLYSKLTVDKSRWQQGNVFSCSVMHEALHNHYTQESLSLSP
light: B1 light
notes: as for B1
B13: GpH7-B3 variant I332K / GpL16-k0 (antibody, human IgG1)
heavy: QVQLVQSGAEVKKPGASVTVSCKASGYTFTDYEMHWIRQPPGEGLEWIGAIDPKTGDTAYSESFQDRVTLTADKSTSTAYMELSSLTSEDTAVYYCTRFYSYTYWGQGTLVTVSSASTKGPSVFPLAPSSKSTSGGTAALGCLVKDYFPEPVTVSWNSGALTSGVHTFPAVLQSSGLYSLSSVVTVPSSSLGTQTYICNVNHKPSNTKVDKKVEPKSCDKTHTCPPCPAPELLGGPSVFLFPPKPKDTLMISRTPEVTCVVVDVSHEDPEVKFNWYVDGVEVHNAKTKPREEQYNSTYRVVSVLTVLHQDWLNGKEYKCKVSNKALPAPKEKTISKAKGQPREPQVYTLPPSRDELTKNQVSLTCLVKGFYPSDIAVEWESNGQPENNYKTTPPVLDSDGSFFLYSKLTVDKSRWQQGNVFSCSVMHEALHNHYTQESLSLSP
light: B1 light
notes: as for B1
B14: IL6R-BP087/IL6R-L (antibody, human IgG1)
heavy: QVQLQESGPGLVKPSETLSLTCAVSGHSISHDHAWSWVRQPPGEGLEWIGFISYSGITNYNPSLQGRVTISRDNSKNTLYLQMNSLRAEDTAVYYCARSLARTTAMDYWGEGTLVTVSSASTKGPSVFPLAPSSKSTSGGTAALGCLVKDYFPEPVTVSWNSGALTSGVHTFPAVLQSSGLYSLSSVVTVPSSSLGTQTYICNVNHKPSNTKVDKKVEPKSCDKTHTCPPCPAPEYLGGDSVFLFPPKPKDTLMISRTPEVTCVVVDVSHEDPEVKFNWYVDGVEVHNAKTKPREEQYNSTYRVVSVLTVLHQDWLNGKEYKCKVSNKALPKPIEKTISKAKGQPREPQVYTLPPSRDELTKNQVSLTCLVKGFYPSDIAVEWESNGQPENNYKTTPPVLDSDGSFFLYSKLTVDKSRWQQGNVFSCSVMHEALHNHYTQESLSLSP
light: DIQMTQSPSSLSASVGDRVTITCRASQDISSYLNWYQQKPGKAPKLLIYYTSRLHSGVPSRFSGSGSGTDFTFTISSLQPEDIATYYCQQGNTLPYTFGQGTKVEIK
notes: copies: 2 + 2

Numbering of substitutions follows the chain as printed. Numbers in names are those of the source.
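For relative binding activity (% of GpH7-B3/GpL16-k0) in this document: FcγR binding response divided by the amount of captured antibody, then expressed relative to the reference antibody ×100, with antibodies captured via immobilized Protein A, A/G, L or antigen peptides.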

T6 sequence (P12314 16-292 limits assumed): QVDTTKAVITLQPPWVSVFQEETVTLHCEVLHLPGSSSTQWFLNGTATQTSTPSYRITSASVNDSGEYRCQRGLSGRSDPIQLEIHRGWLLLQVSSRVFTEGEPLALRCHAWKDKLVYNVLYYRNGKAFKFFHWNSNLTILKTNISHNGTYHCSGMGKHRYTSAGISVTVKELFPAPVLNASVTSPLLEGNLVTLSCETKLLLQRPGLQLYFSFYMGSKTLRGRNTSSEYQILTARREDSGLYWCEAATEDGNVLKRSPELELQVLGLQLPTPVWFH
T5 sequence (P08637 other isoform, or with tags, fused parts or gaps limits assumed): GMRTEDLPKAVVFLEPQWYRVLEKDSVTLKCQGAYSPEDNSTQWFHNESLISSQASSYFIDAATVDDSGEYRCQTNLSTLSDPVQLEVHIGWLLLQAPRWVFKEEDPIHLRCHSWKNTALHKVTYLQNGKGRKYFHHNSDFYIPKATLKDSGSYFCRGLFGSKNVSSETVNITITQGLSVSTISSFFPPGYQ

The first assay addresses T5, human FcγRIIIa(F) (human, UniProt P08637 17-208, limits assumed).
T5 construct: also called FcgRIIIaF; hFcgRIIIa(F)
The experiment in a line: SPR (Biacore), antibody captured on chip, FcγR as analyte, HBS-EP+, 25°C. (In general: Surface plasmon resonance follows binding to a sensor surface in real time, without labels.)
Protocol: (§1) Interaction between each modified antibody and Fcγ receptor prepared in the manner described above was analyzed using the Biacore T100 (GE Healthcare), Biacore T200 (GE Healthcare), Biacore A100 or Biacore 4000. HBS-EP+ (GE Healthcare) was used for the running buffer, and measurements were carried out at 25° C. The chips used were chips in which antigen peptides, Protein A (Thermo Scientific), Protein A/G (Thermo Scientific) or Protein L (ACTIGEN or BioVision) were immobilized on the Series S Sensor Chip CM5 (GE Healthcare) or Series S Sensor Chip CM4 (GE Healthcare) by amine coupling, or chips in which preliminarily biotinylated antigen peptides were allowed to interact and then immobilized on the Series S Sensor Chip SA (certified) (GE Healthcare). The target antibodies were captured on these sensor chips, Fcγ receptor diluted with the running buffer was allowed to interact, followed by measurement of the amount of bound antibody. The amounts bound were compared between antibodies. However, since the amount of Fcγ receptor bound depends on the amount of captured antibody, the values used for comparison were first corrected by dividing the amount of Fcγ receptor bound by the captured amount of each antibody. Through reaction with 10 mM glycine-HCl at pH 1.5, the sensor chips were regenerated by washing off antibody captured on the sensor chips and used repeatedly.
(§2) Binding strength was evaluated according to the following method based on the results of analyzing the interaction with each FcγR. […] That value was then further multiplied by 100, and the resulting value was used as an indicator of relative binding activity to each FcγR.
Turning to B1, the “relative binding activity (% of GpH7-B3/GpL16-k0)” value was 1%.
Still for that read-out and setting: for B2 the value was 0%; for B3, 4%; for B4, 14%.
In the case of B5, the “relative binding activity (% of GpH7-B3/GpL16-k0)” value is 61%.
The same measure, in the same setting: the figure for B6 is 34%.
The same measure, in the same setting: for B7 the value was 38%; for B8, -1%.
Same read-out and setting: the figure for B9 is -1%; for B10 it is 0%.
For the molecule B11, the “relative binding activity (% of GpH7-B3/GpL16-k0)” value was found to be 0%.
As for B12, the “relative binding activity (% of GpH7-B3/GpL16-k0)” value turned out to be 56%.

A further assay deals with T1, human FcγRIIa(H). The assay is described as above.
Protocol: as §1, §2
With B1, the “relative binding activity (% of GpH7-B3/GpL16-k0)” value was found to be 1%.
Same read-out and setting: for B2 the value was 0%.
On the same count and under the same terms, the figure for B3 is 1%; for B4 it is 26%; for B5 it is 70%.
Still for that read-out and setting: for B6 the value was 58%; for B7, 59%; for B8, -1%.
In the case of B13, the “relative binding activity (% of GpH7-B3/GpL16-k0)” value came out at 59%.
Same read-out and setting: for B9 the value was 0%; for B10, 0%; for B11, 0%.
Take B12: the “relative binding activity (% of GpH7-B3/GpL16-k0)” value stood at 25%.

In a further assay the target is T2, human FcγRIIb. The assay is described as above.
Protocol: as §1, §2
On to B1, for which the “relative binding activity (% of GpH7-B3/GpL16-k0)” value was -1%.
The same measure, in the same setting: the figure for B2 is -3%; for B3 it is 0%; for B4 it is 41%.
The same measure, in the same setting: the figure for B5 is 23%.
In the case of B6, the “relative binding activity (% of GpH7-B3/GpL16-k0)” value worked out at 63%.
For the molecule B7, the “relative binding activity (% of GpH7-B3/GpL16-k0)” value is 55%.
Still for that read-out and setting: for B8 the value was -2%; for B13, 27%.
Same read-out and setting: for B9 the value was -2%; for B10, -3%; for B11, 0%.
Take B12: the “relative binding activity (% of GpH7-B3/GpL16-k0)” value came to 39%.

A further assay addresses T6, human FcγRIa (human, UniProt P12314 16-292, limits assumed).
T6 construct: Analyte in solution on Biacore; also called FcgRIa; hFcgRIa
Described as above.
Protocol: as §1, §2
For B1, the “relative binding activity (% of GpH7-B3/GpL16-k0)” value turned out to be 60%.
Still for that read-out and setting: for B2 the value was 58%; for B3, 92%; for B4, 100%.
On the same count and under the same terms, the figure for B5 is 95%; for B6 it is 98%.
The same measure, in the same setting: for B7 the value was 95%; for B8, 23%.
With B13, the “relative binding activity (% of GpH7-B3/GpL16-k0)” value is 77%.
On the same count and under the same terms, the figure for B9 is 33%; for B10 it is 76%; for B11 it is 94%.
On the same count and under the same terms, the figure for B12 is 87%.

A further assay concerns the target T3, human FcγRIIa(R). Described as above.
Protocol: as §1, §2
As for B1, the “relative binding activity (% of GpH7-B3/GpL16-k0)” value stood at 0%.
Regarding B2, the “relative binding activity (% of GpH7-B3/GpL16-k0)” value is 0%.
On the same count and under the same terms, for B3 the value was 1%; for B4, 34%.
On the same count and under the same terms, for B5 the value was 28%.
The same measure, in the same setting: for B6 the value was 72%; for B7, 64%.
Consider B8, for which the “relative binding activity (% of GpH7-B3/GpL16-k0)” value is -1%.
With B13, the “relative binding activity (% of GpH7-B3/GpL16-k0)” value was determined as 12%.
Take B9: the “relative binding activity (% of GpH7-B3/GpL16-k0)” value was -1%.
The same measure, in the same setting: for B10 the value was -1%.
The same measure, in the same setting: the figure for B11 is 1%.
The same measure, in the same setting: the figure for B12 is 42%.

The target in a further assay is T4, human FcγRIIb. Put plainly: ratio of this variant's SPR KD for FcγRIIaH to its KD for FcγRIIb.
Description: Furthermore, KD(IIaR)/KD(IIb) and KD(IIaH)/KD(IIb) in the table respectively represent the value obtained by dividing the KD value of each variant for FcγRIIaR by the KD value of each variant for FcγRIIb, and the value obtained by dividing the KD value of each variant for FcγRIIaH by the KD value of each variant for FcγRIIb.
In the case of B14, the “KD (IIaH)/KD (IIb)” value was found to be 34.7.

Values taken from patent publication US20140105889A1 (published 2014).
